From patent publication US20250313634A1 (WUXI BIOLOGICS SHANGHAI, published 2025) come the findings set out here.

What all share (test): capture ELISA on coated 1.14.4; relative to silent alanine substitutions
A general note: ELISA stands for enzyme-linked immunosorbent assay.

Assay [1] concerns the target T1, hPD-L1_ECD.His point mutant Q66A (human, UniProt Q9NZQ7 19-238).
T1 construct: extracellular domain
In a few lines: (§1)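 Capture ELISA in which supernatant containing quantified PD-L1 alanine mutant was detected with HRP anti-His antibody. Absorbance was normalized to the average of control mutants. Epitope residues were called at binding fold change <0.55.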

The target of assay [2] is T2, hPD-L1_ECD.His point mutant E58A (human, UniProt Q9NZQ7 19-238).
T2 construct: extracellular domain
The method in brief: as §1

The target in assay [3] is T3, hPD-L1_ECD.His point mutant Y28A (human, UniProt Q9NZQ7 19-238).
T3 construct: extracellular domain
The method in brief:
as §1

Assay [4] has as its target T4, hPD-L1_ECD.His point mutant V44A (human, UniProt Q9NZQ7 19-238).
T4 construct: extracellular domain
In a few lines: as §1

Assay [5] concerns the target T5, hPD-L1_ECD.His point mutant G159A (human, UniProt Q9NZQ7 19-238).
T5 construct: extracellular domain
In a few lines:
as §1

In assay [6] the target is T6, hPD-L1_ECD.His point mutant D103A (human, UniProt Q9NZQ7 19-238).
T6 construct: extracellular domain
In a few lines: as §1

The target in assay [7] is T7, hPD-L1_ECD.His point mutant A121G (human, UniProt Q9NZQ7 19-238).
T7 construct: extracellular domain
The method in brief: as §1

The target in assay [8] is T8, hPD-L1_ECD.His point mutant R82A (human, UniProt Q9NZQ7 19-238).
T8 construct: extracellular domain
The method in brief:
as §1

The target of assay [9] is T9, hPD-L1_ECD.His point mutant T201A (human, UniProt Q9NZQ7 19-238).
T9 construct: extracellular domain
In a few lines:
as §1

Assay [10] has as its target T10, hPD-L1_ECD.His point mutant A109G (human, UniProt Q9NZQ7 19-238).
T10 construct: extracellular domain
In a few lines: as §1

Assay [11] deals with T11, hPD-L1_ECD.His point mutant I38A (human, UniProt Q9NZQ7 19-238).
T11 construct: extracellular domain
In a few lines: as §1

In assay [12] the target is T12, hPD-L1_ECD.His point mutant E39A (human, UniProt Q9NZQ7 19-238).
T12 construct: extracellular domain
In a few lines:
as §1

Assay [13] has as its target T13, hPD-L1_ECD.His point mutant D90A (human, UniProt Q9NZQ7 19-238).
T13 construct: extracellular domain
The method in brief:
as §1

In assay [14] the target is T14, hPD-L1_ECD.His point mutant L88A (human, UniProt Q9NZQ7 19-238).
T14 construct: extracellular domain
In a few lines:
as §1

Assay [15] deals with T15, hPD-L1_ECD.His point mutant V225A (human, UniProt Q9NZQ7 19-238).
T15 construct: extracellular domain
In a few lines:
as §1

Assay [16] has as its target T16, hPD-L1_ECD.His point mutant I54A (human, UniProt Q9NZQ7 19-238).
T16 construct: extracellular domain
In a few lines: as §1

Assay [17] addresses T17, hPD-L1_ECD.His point mutant H69A (human, UniProt Q9NZQ7 19-238).
T17 construct: extracellular domain
The method in brief: as §1

Assay [18] has as its target T18, hPD-L1_ECD.His point mutant D122A (human, UniProt Q9NZQ7 19-238).
T18 construct: extracellular domain
In a few lines: as §1

The target in assay [19] is T19, hPD-L1_ECD.His point mutant L48A (human, UniProt Q9NZQ7 19-238).
T19 construct: extracellular domain
The method in brief: as §1

Assay [20] addresses T20, hPD-L1_ECD.His point mutant Y123A (human, UniProt Q9NZQ7 19-238).
T20 construct: extracellular domain
In a few lines: as §1

Assay [21] has as its target T21, hPD-L1_ECD.His point mutant L214A (human, UniProt Q9NZQ7 19-238).
T21 construct: extracellular domain
The method in brief: as §1

For assay [22], the target named is T22, hPD-L1_ECD.His point mutant K185A (human, UniProt Q9NZQ7 19-238).
T22 construct: extracellular domain
The method in brief: as §1

T22 sequence (Q9NZQ7 19-238 K185A): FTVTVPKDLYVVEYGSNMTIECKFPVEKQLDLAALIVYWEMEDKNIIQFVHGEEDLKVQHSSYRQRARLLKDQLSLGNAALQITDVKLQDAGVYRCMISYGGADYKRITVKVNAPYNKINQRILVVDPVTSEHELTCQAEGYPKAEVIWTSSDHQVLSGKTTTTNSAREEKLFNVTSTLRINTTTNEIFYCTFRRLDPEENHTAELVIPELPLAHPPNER
T16 sequence (Q9NZQ7 19-238 I54A): as the sequence (Q9NZQ7 19-238 K185A) above, with I36A, A167K counted along it
T14 sequence (Q9NZQ7 19-238 L88A): as the sequence (Q9NZQ7 19-238 K185A) above, with L70A, A167K counted along it
T19 sequence (Q9NZQ7 19-238 L48A): as the sequence (Q9NZQ7 19-238 K185A) above, with L30A, A167K counted along it
T10 sequence (Q9NZQ7 19-238 A109G): as the sequence (Q9NZQ7 19-238 K185A) above, with A91G, A167K counted along it
T2 sequence (Q9NZQ7 19-238 E58A): as the sequence (Q9NZQ7 19-238 K185A) above, with E40A, A167K counted along it
T12 sequence (Q9NZQ7 19-238 E39A): as the sequence (Q9NZQ7 19-238 K185A) above, with E21A, A167K counted along it
T4 sequence (Q9NZQ7 19-238 V44A): as the sequence (Q9NZQ7 19-238 K185A) above, with V26A, A167K counted along it
T11 sequence (Q9NZQ7 19-238 I38A): as the sequence (Q9NZQ7 19-238 K185A) above, with I20A, A167K counted along it
T9 sequence (Q9NZQ7 19-238 T201A): as the sequence (Q9NZQ7 19-238 K185A) above, with A167K, T183A counted along it
T6 sequence (Q9NZQ7 19-238 D103A): as the sequence (Q9NZQ7 19-238 K185A) above, with D85A, A167K counted along it
T8 sequence (Q9NZQ7 19-238 R82A): as the sequence (Q9NZQ7 19-238 K185A) above, with R64A, A167K counted along it
T18 sequence (Q9NZQ7 19-238 D122A): as the sequence (Q9NZQ7 19-238 K185A) above, with D104A, A167K counted along it
T15 sequence (Q9NZQ7 19-238 V225A): as the sequence (Q9NZQ7 19-238 K185A) above, with A167K, V207A counted along it
T13 sequence (Q9NZQ7 19-238 D90A): as the sequence (Q9NZQ7 19-238 K185A) above, with D72A, A167K counted along it
T20 sequence (Q9NZQ7 19-238 Y123A): as the sequence (Q9NZQ7 19-238 K185A) above, with Y105A, A167K counted along it
T3 sequence (Q9NZQ7 19-238 Y28A): as the sequence (Q9NZQ7 19-238 K185A) above, with Y10A, A167K counted along it
T17 sequence (Q9NZQ7 19-238 H69A): as the sequence (Q9NZQ7 19-238 K185A) above, with H51A, A167K counted along it
T21 sequence (Q9NZQ7 19-238 L214A): as the sequence (Q9NZQ7 19-238 K185A) above, with A167K, L196A counted along it
T7 sequence (Q9NZQ7 19-238 A121G): as the sequence (Q9NZQ7 19-238 K185A) above, with A103G, A167K counted along it
T1 sequence (Q9NZQ7 19-238 Q66A): as the sequence (Q9NZQ7 19-238 K185A) above, with Q48A, A167K counted along it
T5 sequence (Q9NZQ7 19-238 G159A): as the sequence (Q9NZQ7 19-238 K185A) above, with G141A, A167K counted along it

B1: 1.14.4 (antibody, V domains shown)
VH: EVQLLESGGGLVQPGGSLRLSCAASGFTFSSYAMSWVRQAPGKGLEWVSGISGSGGFTYYADSVKGRFTISRDNSKNTLYLQMNSLRAEDTAVYYCAKPPRGYNYGPFDYWGQGTLVTVSS
VL: SYVLTQPPSVSVAPGQTARITCGGNNIGSKSVHWYQQKPGQAPVLVVYDDSDRPSGIPERFSGSNSGNTATLTISRVEAGDEADYYCQVWDSSSDHVVFGGGTKLTVL
notes: Fully human monoclonal antibody with a human constant region of IgG4 isotype
In the case of B1, the fold change is 0.979 fold in assay [1]; 0.399 fold in assay [2]; 0.842 fold in [3]; 0.837 fold in [4]; 0.448 fold in assay [5]; 0.863 fold in assay [6]. The fold change amounted to 1.15 fold in [7]; 0.934 fold in assay [8]; 0.781 fold in assay [9]; 0.797 fold in assay [10]; 1.13 fold in [11]; 0.831 fold in assay [12]. The fold change in assay [13] stood at 0.858 fold; in assay [14], 1.1 fold; in assay [15] it was 0.749 fold; in assay [16], 0.918 fold; in assay [17], 1.06 fold; in assay [18], 1.22 fold. For the same molecule, the fold change in assay [19] stood at 0.77 fold; in assay [20], 1.11 fold; in assay [21], 0.958 fold; in assay [22], 0.853 fold.
